These are literature values, as cited in paper PMC4004251.

Targets include Glu27 (UniProt position 253, DAATAEKVFKQ); Glu15 (UniProt position 241, KTLKGETTTEA); Glu42 (UniProt position 268, NGVDGEWTYDD).
What all share (settings): folded GB1 (the article states the structure is stable above pH 3)

Regarding “Immunoglobulin G-binding protein G, B1 domain (GB1) (Streptococcus sp. group G)”, the pKa entry in the data set with Glu27 is “about 4.5”; in the data set with Glu15, “near 4.5”; in the data set with Glu42, “about 4.5”.
